The record followed here is paper PMC3576407, “N332-Directed Broadly Neutralizing Antibodies Use Diverse Modes of HIV-1 Recognition: Inferences from Heavy-Light Chain Complementation of Function” (PLoS ONE, 2013).

Holding throughout (assay): ELISA; 200 ng gp120 coated on Maxisorb 96-well plates in PBS overnight at 4°C; blocked with PBS 5% dry milk; 25–50 µl antibody supernatant 1 h at RT; HRP goat anti-human IgG (H+L); TMB, OD450; absorbance normalised by the expression titer
Settings in all cases: one partner purified
Background: ELISA stands for enzyme-linked immunosorbent assay.

The target in test [1] is T1, HIV-1 BaL gp120 monomeric protein (HIV-1 subtype B, isolate BaL (clone not …, UniProt Q2MKA8, strain)).
T1 construct: gp120 envelope glycoprotein (the gp120 product of Env gp160) of HIV-1 primary isolate BaL, full-length gp120, monomeric

Test [2] deals with T2, HIV-1 CAAN gp120 monomeric protein (HIV-1 subtype B, isolate CAAN …, UniProt Q5G5U4, strain).
T2 construct: gp120 envelope glycoprotein (the gp120 product of Env gp160) of HIV-1 primary isolate CAAN, full-length gp120, monomeric

Test [3] has as its target T3, HIV-1 YU2 gp120 monomeric protein (HIV-1 clade B, primary isolate YU2, UniProt P35961).
T3 construct: gp120 envelope glycoprotein (the gp120 product of Env gp160) of HIV-1 primary isolate YU2, full-length gp120, monomeric

B1: PGT121 (wild-type IgG, PGT121 heavy chain with PGT121 light chain) (antibody, V domains shown)
VH: QMQLQESGPGLVKPSETLSLTCSVSGASISDSYWSWIRRSPGKGLEWIGYVHKSGDTNYSPSLKSRVNLSLDTSKNQVSLSLVAATAADSGKYYCARTLHGRRIYGIVAFNEWFTYFYMDVWGNGTQVTVSS
VL: DISVAPGETARISCGEKSLGSRAVQWYQHRAGQAPSLIIYNNQDRPSGIPERFSGSPDSPFGTTATLTITSVEAGDEADYYCHIWDSRVPTKWVFGGGTTLTVL
notes: PGT121 heavy chain; PGT121 light chain; also called PGT121-H/PGT121-L; source: HEK 293T cells (methods; the results say 293F), transient transfection in 96-well microplates, supernatant used directly
Regarding B1, the binding result in test [1] and in test [2] was “binds” throughout.

B2: PGT128 (wild-type IgG, PGT128 heavy chain with PGT128 light chain) (antibody, V domains shown)
VH: QPQLQESGPTLVEASETLSLTCAVSGDSTAACNSFWGWVRQPPGKGLEWVGSLSHCASYWNRGWTYHNPSLKSRLTLALDTPKNLVFLKLNSVTAADTATYYCARFGGEVLRYTDWPKPAWVDLWGRGTLVTVSS
VL: QSALTQPPSASGSPGQSITISCTGTSNNFVSWYQQHAGKAPKLVIYDVNKRPSGVPDRFSGSKSGNTASLTVSGLQTDDEAVYYCGSLVGNWDVIFGGGTKLTVL
notes: PGT128 heavy chain; PGT128 light chain; also called PGT128-H/PGT128-L; source: HEK 293T cells (methods; the results say 293F), transient transfection in 96-well microplates, supernatant used directly
For the molecule B2, the binding result in test [3] and in test [2] was “binds” throughout.
